Our source for the Kd values is publication doi:10.1101/2023.04.27.535981, “Development of constrained peptide inhibitors targeting an oncogenic E3 ubiquitin ligase” (bioRxiv, 2023).

The experiment addresses T1, Cks1-Skp2-Skp1 complex (GST-Skp2-Skp1-His-Cks1) (human | , UniProt Q13309 1-424; P63208 1-163; P61024 1-79).
T1 construct: Skp2, human; GST-Skp2 fusion from a dicistronic pGEX 4T1 plasmid with Skp1; Skp1, human; second cistron of the pGEX 4T1 GST-Skp2/Skp1 plasmid; Cks1, full length (1-79); The design was based on PDB 2AST, whose constructs may differ; also called Skp1-Skp2-Cks1 complex; Skp2-Skp1-Cks1 complex; source: E. coli C41; GST-Skp2-Skp1 (glutathione Sepharose, SEC) and His-Cks1 (Ni-NTA, SEC) purified, mixed …
As to the kind of experiment: fluorescence polarisation; direct FP; protein serially diluted 1:2 (12 points, triplicate) and mixed with 20 nM TAMRA-labelled peptide; SEC buffer (20 mM Tris-HCl pH 7.5, 150 mM NaCl, 1 mM DTT) with 0.01 % Tween-20; 30 min at room temperature. The settings on record: both partners purified. For orientation: Polarisation of emitted light reports the rotation of a fluorescent probe.

Square brackets hold non-standard residues; d marks the D form. Ends that are not written are not given here. pT = C[C@@H](OP(=O)(O)O)[C@H](N)C(=O)O; Ahx = NCCCCCC(=O)O

T1 sequence (Q13309 whole entry, chain 1 of 3, the tested form may be a part): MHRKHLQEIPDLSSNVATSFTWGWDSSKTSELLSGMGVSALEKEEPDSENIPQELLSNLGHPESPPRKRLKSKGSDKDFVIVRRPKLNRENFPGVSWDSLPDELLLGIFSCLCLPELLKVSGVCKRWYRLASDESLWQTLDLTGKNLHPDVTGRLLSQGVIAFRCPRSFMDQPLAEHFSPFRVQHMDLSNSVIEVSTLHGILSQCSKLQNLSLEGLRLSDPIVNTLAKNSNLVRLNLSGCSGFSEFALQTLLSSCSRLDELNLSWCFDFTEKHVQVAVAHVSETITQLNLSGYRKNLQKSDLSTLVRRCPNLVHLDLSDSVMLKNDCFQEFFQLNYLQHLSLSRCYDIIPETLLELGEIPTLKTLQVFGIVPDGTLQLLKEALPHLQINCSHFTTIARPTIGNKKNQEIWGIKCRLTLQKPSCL
T1 sequence (P63208 whole entry, chain 2 of 3, the tested form may be a part): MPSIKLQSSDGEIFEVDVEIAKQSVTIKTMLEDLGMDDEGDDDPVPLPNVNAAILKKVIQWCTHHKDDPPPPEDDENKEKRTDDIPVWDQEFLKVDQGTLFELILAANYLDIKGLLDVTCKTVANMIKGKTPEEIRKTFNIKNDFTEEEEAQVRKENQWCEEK
T1 sequence (P61024 whole entry, chain 3 of 3, the tested form may be a part): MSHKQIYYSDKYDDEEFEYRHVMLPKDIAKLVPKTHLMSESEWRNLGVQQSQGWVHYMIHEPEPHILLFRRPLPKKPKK

B1: TAMRA-labelled 10-residue phosphorylated p27 peptide (TAMRA-Ahx-AGSVEQT(phos)PKK) (peptide)
peptide: {TAMRA-Ahx}-AGSVEQ[pT]PKK
notes: p27, amino acids 181-190; also called TAMRA-labelled p27 peptide; TAMRA-labelled unconstrained p27 peptide; source: synthetic peptide
For the molecule B1, the Kd stood at 2780 ± 190 nM.

The term Kd denotes the concentration at which binding is half-saturated. Lower therefore signals higher affinity.
